Laboratory results from FireProtDB (doi:10.1021/bi002609i).

Conditions: Dictyostelium discoideum, reversible: yes
[1] = pH 5.59, 20 °C, Thermal, DSC, MES/NaMES 50 mM
[2] = pH 5.7, 20 °C, Urea, CD, KH2PO4/K2HPO4 50 mM
[3] = pH 5.7, 20 °C, Urea, CD, MES 50 mM
[4] = pH 5.7, 20 °C, Urea, Fluorescence, MES 50 mM
[5] = pH 5.75, 20 °C, Thermal, DSC, MES/NaMES 50 mM
[6] = pH 5.81, 20 °C, Thermal, DSC, MES/NaMES 50 mM
[7] = pH 6.03, 20 °C, Thermal, DSC, MES/NaMES 50 mM
[8] = pH 6.09, 20 °C, Thermal, DSC, MES/NaMES 50 mM
[9] = pH 6.2, 20 °C, Urea, Fluorescence, MES 50 mM, NaCl 400 mM
[10] = pH 6.2, 20 °C, Urea, Fluorescence, MES 50 mM
[11] = pH 6.25, 20 °C, Thermal, DSC, MES/NaMES 50 mM
[12] = pH 6.7, 20 °C, Urea, CD, KH2PO4/K2HPO4 50 mM
[13] = pH 6.7, 20 °C, Urea, Fluorescence, KH2PO4/K2HPO4 50 mM
[14] = pH 7.08, 5 °C, Urea, Fluorescence, KH2PO4/K2HPO4 50 mM
[15] = pH 7.7, 20 °C, Urea, CD, KH2PO4/K2HPO4 50 mM
[16] = pH 7.7, 20 °C, Urea, Fluorescence, KH2PO4/K2HPO4 50 mM
[17] = pH 8.15, 20 °C, Urea, Fluorescence, KH2PO4/K2HPO4 50 mM
[18] = pH 8.7, 20 °C, Urea, CD, Glycine/sodium glycine 50 mM
[19] = pH 8.7, 20 °C, Urea, Fluorescence, Glycine/sodium glycine 50 mM
[20] = pH 9.7, 20 °C, Urea, CD, Glycine/sodium glycine 50 mM
[21] = pH 9.7, 20 °C, Urea, Fluorescence, Glycine/sodium glycine 50 mM

Hisactophilin-1 wild type, sequence (P13231 whole entry, looked up): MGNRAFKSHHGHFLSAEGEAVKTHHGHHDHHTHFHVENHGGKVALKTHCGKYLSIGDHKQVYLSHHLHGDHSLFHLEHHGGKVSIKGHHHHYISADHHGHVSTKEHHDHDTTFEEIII

Substance: Hisactophilin-1 wild type (from UniProt P13231)
- heat capacity change of unfolding [1]: 2.4 kcal/mol/K
- unfolding free energy [1]: 6.28 kJ/mol
- Tm (pH 5.59, Thermal, DSC, MES/NaMES 50 mM): 47 °C
- denaturant m value [2]: 2.24 kcal/mol/M
- denaturant midpoint (higher = more stable) [2]: 1.02 M
- unfolding free energy [2]: 9.54 kJ/mol
- denaturant m value [3]: 2.19 kcal/mol/M
- denaturant midpoint (higher = more stable) [3]: 1.05 M
- unfolding free energy [3]: 9.2 kJ/mol
- denaturant m value [4]: 2.2 kcal/mol/M
- denaturant midpoint (higher = more stable) [4]: 0.99 M
- unfolding free energy [4]: 9.12 kJ/mol
- heat capacity change of unfolding [5]: 2.4 kcal/mol/K
- unfolding free energy [5]: 5.86 kJ/mol
- Tm (pH 5.75, Thermal, DSC, MES/NaMES 50 mM): 48.9 °C
- heat capacity change of unfolding [6]: 2.4 kcal/mol/K
- unfolding free energy [6]: 8.79 kJ/mol
- Tm (pH 5.81, Thermal, DSC, MES/NaMES 50 mM): 53.6 °C
- heat capacity change of unfolding [7]: 2.4 kcal/mol/K
- unfolding free energy [7]: 11.7 kJ/mol
- Tm (pH 6.03, Thermal, DSC, MES/NaMES 50 mM): 58.3 °C
- heat capacity change of unfolding [8]: 2.4 kcal/mol/K
- unfolding free energy [8]: 17.2 kJ/mol
- Tm (pH 6.09, Thermal, DSC, MES/NaMES 50 mM): 58.7 °C
- denaturant m value [9]: 2.56 kcal/mol/M
- denaturant midpoint (higher = more stable) [9]: 1.39 M
- unfolding free energy [9]: 14.9 kJ/mol
- denaturant m value [10]: 2.39 kcal/mol/M
- denaturant midpoint (higher = more stable) [10]: 2.23 M
- unfolding free energy [10]: 22.3 kJ/mol
- heat capacity change of unfolding [11]: 2.4 kcal/mol/K
- unfolding free energy [11]: 15.9 kJ/mol
- Tm (pH 6.25, Thermal, DSC, MES/NaMES 50 mM): 61.7 °C
- denaturant m value [12]: 1.63 kcal/mol/M
- denaturant midpoint (higher = more stable) [12]: 3.1 M
- unfolding free energy [12]: 21.1 kJ/mol
- denaturant m value [13]: 1.62 kcal/mol/M
- denaturant midpoint (higher = more stable) [13]: 3.08 M
- unfolding free energy [13]: 21.3 kJ/mol
- denaturant m value [14]: 1.67 kcal/mol/M
- denaturant midpoint (higher = more stable) [14]: 2 M
- unfolding free energy [14]: 14 kJ/mol
- denaturant m value [15]: 1.63 kcal/mol/M
- denaturant midpoint (higher = more stable) [15]: 4.31 M
- unfolding free energy [15]: 29.7 kJ/mol
- denaturant m value [16]: 1.59 kcal/mol/M
- denaturant midpoint (higher = more stable) [16]: 4.26 M
- unfolding free energy [16]: 28.4 kJ/mol
- denaturant m value [17]: 1.65 kcal/mol/M
- denaturant midpoint (higher = more stable) [17]: 4.61 M
- unfolding free energy [17]: 31.8 kJ/mol
- denaturant m value [18]: 1.46 kcal/mol/M
- denaturant midpoint (higher = more stable) [18]: 5.18 M
- unfolding free energy [18]: 31.6 kJ/mol
- denaturant m value [19]: 1.49 kcal/mol/M
- denaturant midpoint (higher = more stable) [19]: 5.19 M
- unfolding free energy [19]: 32.4 kJ/mol
- denaturant m value [20]: 1.53 kcal/mol/M
- denaturant midpoint (higher = more stable) [20]: 4.58 M
- unfolding free energy [20]: 29.4 kJ/mol
- denaturant m value [21]: 1.65 kcal/mol/M
- denaturant midpoint (higher = more stable) [21]: 4.76 M
- unfolding free energy [21]: 32.8 kJ/mol
